Assay: soluble on expression in E. coli; label from the status in PepcDB or PDB records
With “MAHHHHHHMHSVVPMSSYIHPTQVSIGAAPRMAVQEMHPDAKRKGRRVVATMELKPGNAIFAAPPDIAVLYSPFARHICARCLVADVRACAEPLKAHHHHHQHPHQQPHATLSRSPVGASSSPSSLSSSTAAPAAAPVRPYCCPNCDQFVLCAPCVAQLLLDSGVDVTSAAGTDAVQTTAPLLQRRGEGKRGVSVVDERLHLHPLLRAHAISCAWYTSLPASIRAPGNDTDFLRFCLDYGARAYLGDTAMMRALATLDTNASVQSKESMQLCEVFARDRVVATFGKEPKAVTATTLATAASAKHMGIDPLSNQAGTHASGGIHRGGNSDGVRCRGSAAVSPFPPRYPISWTDLRDTLLRTRCNSIGFPYNTEETTGWSLHQTVCMLNHSCVPNAAVIMLYDSADAMAAAAALAARTGASHTAPPKERTQEAARRKASERIAAFRAVATSSESPYSTSYSPSLAGWIGIEATRPIAAGEEITISYVDLGSLGDDLQTRSRHLLEQYRFLCTCELCMRQRSLKR” the “soluble on expression in E. coli” value was “not soluble”. With “MAHHHHHHMHVQARYQRITEAYAVLSDPEKRRAYDAKHGVNFQSRLARLQTVIGHHNTMATQRSTTSCKTACLASTSSPTTDEHDAQHLHAASHKDSAERTVGDDDDEDYDPNDVLAPPRGAPHQGRSSDFYSDDSRDAHGEGDYIARLFSLHLRVGAEAAPKTRNGVPVVQYQAITLTRAYSPPESPYARTWGLVFKKNELVDLDGENLEELARITGLAAVPFPSVVQQINYTMAGTDDRLAAPAISALRIRVHTGLSGEPCHGPNGVDQY” the “soluble on expression in E. coli” value was “not soluble”. With “MAHHHHHHMIDDVRICHLVLQDVKERLPLYESRLEAVNNSHVVISCWNESVKAFVPVPVAEDVEFTSDVLHEVVSLVDGLRQLGCTDFFVVFVDSGGTLSFYHVDTLRLLQSGRSGSS” the “soluble on expression in E. coli” value was “not soluble”. In the case of “MAHHHHHHMIFRFYSKLYKHQCAYKNILYNKYHIEKKLEYFYDSIKKNNYSTLYGIKKNDLLNIKKNSGEFLLLSDIFMIKQNNLFLLNNVRRNFYYNTNIIKGIYNDSLFYYDKKYFSGRSGGLKRKKKRKEERIVNTGSAKRLEFFYPKKKRRQRIGLIQNSRKNIVYDNIFKRFLVYHYKQGIQVFRSFSCKKKRNFEAARNKAIILSNQYNKRFNKHNMNDQQRKDTKNIPLNVMDSNLIAKYNNELIKQIKIIPDKNKSGYRGVFYEPSYHAYICIYNEAGVRKFQIFKIQNNDYLEAYHLALMCRRYKLFKNYQFVFQRNRIRSGRIPLK”, the “soluble on expression in E. coli” value is reported as “not soluble”. In the case of “MAHHHHHHMIKRYLKIYPSIYFTKHVYTAPEIDGSKDLLKKDYVFNQYVNKKEIFLNNKLKKGNCENEIKRIYYFKLWNAMVEHNFTLFENIIQQYLNEGYKYDEVIYSIMTHAYILNHKKKNENAYLVIEEMKRAFMHPIIIKINERMINCFLELELIFCEPSKSLWINVCRFIWESSIKLNRERRRKLKEKLNLLEPNQVLKLTKEDVKKLVKKEYEETLLSMMDTLSLDGEDPYDHILIDRKENYMKIENQKDGNFFPSNGNELTCLNNNHIYNDHINYLKGNIENDTSENVNSFMFSILNEGKNKTTEQEINYQDDYNLNNNDYMTKITNINSDNNIMMNMENEHMYETDEKDEHYESFDDAEDFDIQLLKKYYNLK”, the “soluble on expression in E. coli” value is reported as “not soluble”. For “MAHHHHHHMIRINENSKMSSNLSNENEVTYEKNNNIKNKLEEKYKNFLKLKNMNSHMGASQNMNVNNNYTMNELEEFEKINNNYNNNNNNINNNINNYYDYMNIKVSQSVQHNKRLQDFYNNKNSFQHYIKKLKTCRFDADDIRNLLEKRLAYERDNTLIKNIQEEENKKGIGINGNFGSESNSSSSNYDNNYLLYRKINRLNKTNTNKSKNRSRKRKRINSKIDKKYIIKCRACKFINPNGFKIEDYYTCQNCGYNDFSVIRSTSPNNAD”, the “soluble on expression in E. coli” value was “not soluble”. In the case of “MAHHHHHHMKMISFNVFRHVESPACCPPASFVADLSITSKKNTHKHLLSFFIFPLFLESLSVMLPTQKPVLFTPGPLMTSDTVKEAMLTDYASRDIRFVQAVKFIREELISVAGLDPQKWACILQQGSGSMGIEAAISTIFPRTGGKFLLINSGKYSEKQACVVKRLQFPMVMLKMGEGEELKMSALESIIRANPDITTVGFVHHETSTGMLYPAEQIAEVVRRELPKAKIIIDGISAFGGIPCDYEKACDVLVAAPNKCLHSVPGISIILARRLLIEAAKGCARSATLDLSMQLMSFDKSGQFAVTPPVHVVMALQQALVEYKRDGGLSGRQKTYQAKAQLVREAVKAMGFTLFLGESKPSCANVVVCVNMPRDPRWNFKRFYTYLNERGLIIYPGKASHAETFRFGIIGHTSLANCERLMKCAKEALKSMGIDHLQRKSNM”, the “soluble on expression in E. coli” value is reported as “not soluble”. In the case of “MAHHHHHHMKSLENNEMHNLCPIHYYFNGRDYNSDTIINNVNIKYFNMDNCLGNANLHMDYLNPVLNHPTKIEHGKIKILILDAPTNDLLPLYIKEMKNYNVTDLVRTCERTYNDGEIQDAGINVHELIFPDGDAPTEDIVSNWLNIVNNVIKNNCAVAVHCVAGLGRAPVLASIVLIEFGMDPIDAIVFIRDRRKGAINKRQLQFLKEYRKKKKKKNCLRKCHFM”, the “soluble on expression in E. coli” value is reported as “not soluble”. In the case of “MAHHHHHHMLAPTVTREACQPIINAFRCAAEKGQTQTDVDAESWGREVTRINAEAQKAWSEQRKPFIPAMYLRRRDPAAEEALRLLRVTSKAFELNLRFREIEKLDEMHAKLWALLSADKTRLTITIIEYMEILKKFKAWQEERFEGTPKASPQREASVQSSQECLDDTTPLGSVVYLASVMQPRPSLQLYLSCPRSPAGGVEVVHIYQRFAKQVSLVKCEAELIMWDTNNDGCLTEDEMESYVRDLVPRIEALRDITEDILPFYCCTVSRRIFWVLDPGSRGAIRIDMLLQNPVMDEWVSLQLMREDQPRNWFSAAITSHLYDKFLLLDTRNRGTLNADDMKRYKKGLPTVMDDGLPPGVGPLSSLFIDRFFETNVMMANSELDFRKFVDFVVAVEFLPSCQRPLFFWNILDIEGCGYLKPVHVNYFFRETHTKLVAAGLEVPSRETVVQEAFDLISTAEPLCISREEFINAPQAGLFVALLVDCLSFWTYENREQR”, the “soluble on expression in E. coli” value is reported as “not soluble”. With “MAHHHHHHMLHRIPAYRDPLLQVLSDALKRALDFYRREMSAGMSVEFECRLGTFSASKHTYAHPFPTHTLTPALLDGQSTTPFFFFAGVAQPSFIAAHETLKTIGASMPPRSSTVLSVRTVGKDRLEYAMNEACNSGHLLTIVEKERIFSHDVRCPGWGADFRVSVSREKTIDRETWNQAKWESFTPNISRLRQRKSVRIDPFLSVDMAMVRSFTDHSRFVRPWSPELQVPFISAPHVSFDVELEVNMPALHRVVKQTRLVESTLGRTALDLLTVLQFLAAKRE” the “soluble on expression in E. coli” value was “not soluble”. With “MAHHHHHHMLKVSSKEHYAEIKKKAEDSLGLVVHFSATWCEPCTAVNEHLTKQAAEYGDNVVFAEVDCGELGDVCEAEGVESVPFVAYFRTPLVGDDRRVERVADVAGAKFDQIDMNTHSLFGEKGGNRGSAEGLCHSGRLPALPHEAARGRNVHHRHPISSALRLYWSAV” the “soluble on expression in E. coli” value was “not soluble”. With “MAHHHHHHMLMFCRVPEDTAVRISLDVKKHFVNTERTSITQAELENYIRCSMIAAGFAQEHAQLFSVVTQFHAERIPLVLFLAGPERCGKTTLAHLLAARINCSTVINAEVLRDISASIDDSLPLFAVPETSSPDSTPSMLRGAEVSAVVAAEVDKAVREGRAIIVEGENLSFAGFHRFLEPSFQLSTGAVILGLVMEICGGEAETDASHAYVQALPNLHPVYSTERLTVLAADIGDLAKGVRGIPTVYVARYTTVADNVCLSVFLHDIVVKRIIAELKRRGRVL” the “soluble on expression in E. coli” value was “not soluble”. For “MAHHHHHHMLNVLCDIKRYNGFDYYKCPRTILKKTCNFVKRENVADSIFIGNEIEFFIFDKVNFGLDDYDSYLKVYDREAFSCKNGGSGGSAVGSGSHDTTAGVACIACAGHVPPNDDSKKVKKKCGYFATDPYDTSNMIKLRICRILNSLNVHVQKYHHEVSTSQHEISLKYFDAVKNADNLIITKQVIKSTVHNFNRTATFMPKPLVSDNGSGLHCNISLWKDNKNIFFADDPSTFFLSKEAFYFMNGIIKHAKALQAFCNSTMNSYKRLVPGFETCQKLFYSFGSRNAVIRLSMINYSNPSEKRIEFRLPDYANSPHLVLAAIILAGYDGIKSKEQPLVPFESKDNNFFISSIFSNYVENTQNFKTLTHALEGYDTIHDVKKSPEFVNFFTCKEPESICFSLEESLDALEKDHAFLTVDGIFTEVRFVGKCGEAPNTVDTYLPTYPCVLPFVLPICLPHLFSPFFPTAGSH”, the “soluble on expression in E. coli” value was “not soluble”. In the case of “MAHHHHHHMLPLDSPPVTQLAKEFVNFINEACTPFHAVEVLSSWLSNAGYQRLKEGETWPKLTNGYRYFITRNDSSLVAFSVGGRFVAENGLKIVGAHTDSPNLALKPRTLAGRSDYQGVAVQCYGGGLWHTWFDRDLTVAGRVIISSSKLVKRLVKVNKPIMRIPTLAIHLQSVEERNAFGPNKEKHLVPVIATTLSHTPNGDVSEHHNSQLLILLAESLGCRPSEIVDYDLSVVDTQDAVVGGANDEFIYAPRLDNLISCFCGVKALLESDKTLEEENMIRMVCLFDNEEVGSSTSQGAGGSLVPDVIEYISASGGLRAQLVANSFLMSVDGAHAVHPNYQDKHEEKHRPLIHRGPVIKYNANMRYATNGVTAAIVKAIAKRASVPIQEFCVKNDSPCGSTIGPILSSLSGIQTVDLGNPMLSMHSIREMCGTADLLHLKNLLEAFFNHYTRDMVTS”, the “soluble on expression in E. coli” value is reported as “not soluble”. With “MAHHHHHHMLPSVMDRYESYDFGKELLSLLKTASSTPGAHMGVFTGMGLLLAKYRPEKLLEHVNMHAKKINTHKMIAACEEYHLWLVLRVLHVNNEDWLAAATTMMHHHVDAWDHDVFKTVVSHLGSSDLVYNSISFYIQTNPQLLDDFLTSMFKTLDPERVLLEVKKLAPVHFIRQYLESAQERNSRRVNEAINKLYMEEEDFTALRDSVERFDNFDSAELSAELEKMELFEFRKIALFLHRRNKRFTHAVAVAKENKLYQDAIETAAESANPQIVEDLLDFFVVDHPDCFVACLYTCYDYLTPQVVMEKAWLNKRTDLAMPYFIQVIQDYTTKLSRMEKSMMDAQQLAKEAARRAGPLHTGANDPLMIQAGPANPMGGAMPMPMPMPMPMPMMGGVPPGNYGPPPQFDNRRPY” the “soluble on expression in E. coli” value was “not soluble”. For “MAHHHHHHMLSIRKCNIYDLLSMQQCNSINLPENYNLRYYFYHALSWPYLSQIAEDVNGKVCGYSLGKLEEDNEYKGHLTSVAVLKTYRKLKLAFYLILQTHQHLKDIYRANNICLHVRVSNNAALNLYYNLLNYKVNGIETQYYGNKENAYLMEHVFAR”, the “soluble on expression in E. coli” value was “not soluble”. In the case of “MAHHHHHHMMQSKVLPTPQDVVLQGLLSLDSTVKTKTHALVSRQLDRLESYLRIKCGWSVPLSSSSTSAEAGCGSNVVRVSEYVRAFTPDGVPIVDRNGGSFNCFVCCGFGDHAMDFAPGAAKVLGKLVEHQAQHLREEDIEKTKTWGLLTSKLSPSRRAAVEEELQLLFNGVDSDAVKRKGSRTPSEASALALLRHEDNPYSTNRFANMVRKEVKMDSSPPILSRLCALEDVFLTHLEPLRRRFHAKATELALRENTPDWLRTFVFCFMYEEDDDPAAQARKEQHVRSLQRLASQYETPVTDAKTTGDGAEELPLTPAEQSKRKQAELERRAREVFAKRV”, the “soluble on expression in E. coli” value is reported as “not soluble”. In the case of “MAHHHHHHMMRQNLTSDSLITDTLRKAGVPCDVVGIVETVAGACRAIAAGLRNDGVTAAKSKNNFGDDVLSVDVMADKIISEALNSCQHVASYVSEESPSLASTAHSGKATYSVSYDPLDGSSIITSNFTVGSIFAVWPGNTPIGLTVRDMAASVVAVYGPRVVLFVGQEELGVAEFFCGADGEWKLAKRVWAGVCTPRTATVTAAGRGVKLKATVFSPGNLRAVRHLPWYKQLITMYMQEGATLRYTGGMVPDVCQIIVKGDGIYMTPASPQHKMKLRLLFEAAPMAFLIHCAGGRSTTGLTNMMNVRVVSMEQTTPIALGCARDVERYERMCRGCSKL”, the “soluble on expression in E. coli” value is reported as “soluble”.
